Source: paper PMC10234410, “Regulation of intestinal stem cell activity by a mitotic cell cycle regulator Polo in Drosophila”

B1: F2-4-3 wild-type probe (dsDNA)
DNA 1: GAATTTGTTGTTCAACACTCAACAAAATACCGCGATACATACCAGAAAGTGTGCGATAGC
DNA 2: GCTATCGCACACTTTCTGGTATGTATCGCGGTATTTTGTTGAGTGTTGAACAACAAATTC
B2: F2-4-3 mutant probe (dsDNA)
DNA 1: GAACGCACGAGCAGACACTCAACAAAATACCGCGATACATACCAGAAAGTGTGCGATAGC
DNA 2: GCTATCGCACACTTTCTGGTATGTATCGCGGTATTTTGTTGAGTGTCTGCTCGTGCGTTC

Molecular target: Sox21aHMG-BD (Drosophila melanogaster, UniProt M9PFG6 108-208)
Sequence (M9PFG6 entry or part of it): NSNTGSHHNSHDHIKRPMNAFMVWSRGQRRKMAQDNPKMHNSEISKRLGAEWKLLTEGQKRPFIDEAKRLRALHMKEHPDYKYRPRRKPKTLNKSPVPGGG
Assay: EMSA; 25 mM HEPES pH 7.5, 40 mM KCl, 3 mM DTT, 10% glycerol, 0.1 mM EDTA, 0.5 mg/ml BSA, 0.5 mg/ml poly-glutamate, 25 C, 30 min; 6% native PAGE
Conditions: protein: recombinant; tags: His-tag at C-terminus (pET-28b); label: Cy5

Binder	binding result
B1	binds
B2	no binding
